Results: patent publication US20120316071A1 (published 2012)
Values belong to the binder of their own block, whether it stands above or below them.

Columns and labels:
[1] = target: T1, rHuman ErbB2/Fc Chimera, CF (R&D Systems Cat#1129-ER) (human, UniProt P04626 23-652); test: MSD multispot ECL, antigen spotted on plate; Fab 0.1275 uM; blank spot 530
T1 construct: Bought recombinant protein; also called human epidermal growth factor 2 receptor; Fc part of the bought chimera not given

[2] = target: T2, rHuman HGF R/c-MET/Fc Chimera, CF (R&D Systems Cat#358-MT/CF) (human, UniProt P08581 25-932); test: as above
T2 construct: Bought recombinant protein; also called HGF R/Fc; hepatocyte growth factor receptor; Fc part of the bought chimera not given

[3] = target: T3, Recombinant Human DLL4 (R&D Systems Cat#1506-D4/CF) (human, UniProt Q9NR61 27-524); test: as above
T3 construct: Bought recombinant protein; also called delta-like protein 4; rHuman DLL4

[4] = target: T4, rHuman EGF R/Fc Chimera, CF (R&D Systems Cat#344-ER) (human, UniProt P00533 25-645); test: as above
T4 construct: Bought recombinant protein; also called epidermal growth factor receptor; Fc part of the bought chimera not given

[5] = target: T5, rHuman Erythropoietin R/Fc Chimera, CF (R&D Systems Cat#963-ER) (human, UniProt P19235 25-250); test: as above
T5 construct: Bought recombinant protein; also called EPO R/Fc; Epo R; Fc part of the bought chimera not given
T5 sequence (looked up): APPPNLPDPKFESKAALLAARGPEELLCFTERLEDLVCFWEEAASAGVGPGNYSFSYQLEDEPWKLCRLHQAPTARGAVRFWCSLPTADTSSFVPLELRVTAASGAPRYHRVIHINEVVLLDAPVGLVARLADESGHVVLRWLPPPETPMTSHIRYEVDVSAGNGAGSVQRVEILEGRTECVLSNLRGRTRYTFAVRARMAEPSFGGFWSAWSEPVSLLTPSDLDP

[6] = target: T6, rHuman P-Cadherin/Fc Chimera, CF (R&D Systems Cat#861-PC) (human, UniProt P22223 108-654); test: MSD Multispot ECL, antigen spotted on plate, Fab at 7.5 nM; blank spot 217
T6 construct: Bought Fc chimera; Fc part of the bought chimera not given

[7] = target: T7, Recombinant Human DLL4 (R&D Systems Cat#1506-D4/CF) (human, UniProt Q9NR61 27-524); test: as above
T7 construct: Bought recombinant protein; also called rHuman DLL4; delta-like protein 4

[8] = target: T8, rHuman Erythropoietin R/Fc Chimera, CF (R&D Systems Cat#963-ER) (human, UniProt P19235 25-250); test: as above
T8 construct: Bought Fc chimera; also called EPO R/Fc; Epo R; Fc part of the bought chimera not given
T8 sequence (looked up): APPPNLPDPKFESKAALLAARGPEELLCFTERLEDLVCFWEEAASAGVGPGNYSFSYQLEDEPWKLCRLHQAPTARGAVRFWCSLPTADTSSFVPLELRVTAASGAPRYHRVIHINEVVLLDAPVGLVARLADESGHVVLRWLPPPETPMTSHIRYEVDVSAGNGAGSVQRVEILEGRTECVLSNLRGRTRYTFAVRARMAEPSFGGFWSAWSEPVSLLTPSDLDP

[9] = target: T9, rHuman CD44/Fc Chimera, CF (R&D Systems Cat#3660-CD) (human, UniProt P16070 21-220); test: as above
T9 construct: Bought Fc chimera; Fc part of the bought chimera not given

[10] = target: T10, rHuman Notch-1/Fc Chimera, CF (R&D Systems Cat#3647-TK) (human, UniProt P46531 19-526); test: as above
T10 construct: Bought Fc chimera; Fc part of the bought chimera not given

[11] = target: T11, rHuman HGF R/c-MET/Fc Chimera, CF (R&D Systems Cat#358-MT/CF) (human, UniProt P08581 25-932); test: MSD multispot ECL, antigen spotted on plate, Fab 11 nM; blank spot 212
T11 construct: Bought from R&D Systems; also called HGF R/Fc; hepatocyte growth factor receptor (HGF R/c-Met); not shown: Fc of the bought chimera

[12] = target: T12, rHuman Erythropoietin R/Fc Chimera, CF (R&D Systems Cat#963-ER) (human, UniProt P19235 25-250); test: as above
T12 construct: Bought from R&D Systems; also called EPO R/Fc; Epo R/Fc chimera; not shown: Fc of the bought chimera
T12 sequence (looked up): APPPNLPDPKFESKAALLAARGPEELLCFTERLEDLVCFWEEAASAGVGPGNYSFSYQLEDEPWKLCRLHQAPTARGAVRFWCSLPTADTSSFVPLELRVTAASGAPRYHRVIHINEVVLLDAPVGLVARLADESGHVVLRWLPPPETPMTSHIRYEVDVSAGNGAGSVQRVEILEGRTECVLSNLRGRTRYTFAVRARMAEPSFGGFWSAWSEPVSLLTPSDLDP

[13] = target: T13, rHuman CD44/Fc Chimera, CF (R&D Systems Cat#3660-CD) (human, UniProt P16070 21-220); test: as above
T13 construct: Bought from R&D Systems; not shown: Fc of the bought chimera

[14] = target: T14, rHuman EGF R/Fc Chimera, CF (R&D Systems Cat#344-ER) (human, UniProt P00533 25-645); test: as above
T14 construct: Bought from R&D Systems; also called epidermal growth factor receptor (EGF R); not shown: Fc of the bought chimera

[15] = target: T15, rHuman Notch-1/Fc Chimera, CF (R&D Systems Cat#3647-TK) (human, UniProt P46531 19-526); test: as above
T15 construct: Bought from R&D Systems; not shown: Fc of the bought chimera

[16] = target: T16, rHuman ErbB2/Fc Chimera, CF (R&D Systems Cat#1129-ER) (human, UniProt P04626 23-652); test: as above
T16 construct: Bought from R&D Systems; also called human epidermal growth factor 2 receptor (ErbB2); not shown: Fc of the bought chimera

[17] = target: T17, rHuman IGF-1 sR, (IGF-1 sR), CF (R&D Systems Cat#391-GR) (human, UniProt P08069 31-932); test: as above
T17 construct: Bought from R&D Systems and called a soluble receptor; also called insulin-like growth factor-1 soluble receptor

[18] = target: T18, rHuman P-Cadherin/Fc Chimera, CF (R&D Systems Cat#861-PC) (human, UniProt P22223 108-654); test: as above
T18 construct: Bought from R&D Systems; not shown: Fc of the bought chimera

- ECL signal [1]: 857
- ECL signal [2]: 853
- ECL signal [3]: 2380
- ECL signal [4]: 1060
- ECL signal [5]: 1070
B1: Fab VH4-34_IGHD7-27*01_IGHJ4*01 & L5_IGKJ1*01 (Fab, V domains shown)
VH: QVQLQQWGAGLLKPSETLSLTCAVYGGSFSGYYWSWIRQPPGKGLEWIGEINHSGSTNYNPSLKSRVTISVDTSKNQFSLKLSSVTAADTAVYYCARANWGDYFDYWGQGTLVTVSS
VL: DIQMTQSPSSVSASVGDRVTITCRASQGISSWLAWYQQKPGKAPKLLIYAASSLQSGVPSRFSGSGSGTDFTLTISSLQPEDFATYYCQQANSFPPWTFGQGTKVEIKR
notes: Germline library Fab expressed in E. coli; VH was cloned into Plasmid A, which adds CH1 with His6 and Flag tags

- ECL signal [6]: 352
- ECL signal [7]: 598
- ECL signal [8]: 443
- ECL signal [9]: 444
- ECL signal [10]: 392
B2: Fab VH6-1_IGHD3-3*01_IGHJ4*01 & V4-3_IGLJ4*01 (Fab, V domains shown)
VH: QVQLQQSGPGLVKPSQTLSLTCAISGDSVSSNSAAWNWIRQSPSRGLEWLGRTYYRSKWYNDYAVSVKSRITINPDTSKNQFSLQLNSVTPEDTAVYYCAREYYDFWSGYYTDYFDYWGQGTLVTVSS
VL: QPVLTQPTSLSASPGASARLTCTLRSGINLGSYRIFWYQQKPESPPRYLLSYYSDSSKHQGSGVPSRFSGSKDASSNAGILVISGLQSEDEADYYCMIWHSSASFVFGGGTQLIIL
notes: Tested as a purified germline Fab made in E. coli; The VH was cloned into plasmid A (CH1 constant region, His6 and Flag tags) and the lambda VL into plasmid E (lambda CL)

- ECL signal [11]: 268
- ECL signal [12]: 1820
- ECL signal [13]: 296
- ECL signal [14]: 201
- ECL signal [15]: 404
- ECL signal [16]: 216
- ECL signal [17]: 289
- ECL signal [18]: 270
B3: Fab VH1-46_IGHD3-10*01_IGHJ4*01 & B3_IGKJ1*01 (Fab, V domains shown)
VH: QVQLVQSGAEVKKPGASVKVSCKASGYTFTSYYMHWVRQAPGQGLEWMGIINPSGGSTSYAQKFQGRVTMTRDTSTSTVYMELSSLRSEDTAVYYCAREYYYGSGSYYNDYFDYWGQGTLVTVSS
VL: not shown
notes: Tested as a Fab made in E. coli; VH was cloned into Plasmid A (CH1 constant region, His6 and Flag tags); The kappa VL was cloned into Plasmid C (kappa CL)
